Results on 5 molecules are retold here after patent publication US8470587B2, “129Xe biosensors and their use” (The Trustees of the University of Pennsylvania, priority 2006, dated 2013).

Values joined by “and” are separate entries in the source; they are usually repeats but may differ in a detail not shown here. Equal entries are not always repeated. Where two headings read alike, the source gives them in different places. * marks the point of attachment. monopropargyl‑cryptophane‑A = monopropargyl-cryptophane-A, coupled to the azido-peptide by Cu(I)-mediated coupling; 3‑azidopropionyl = [N-]=[N+]=NCCC(=O)*

Series [1] concerns the target T1, MMP-7 (Homo sapiens, UniProt P09237).
T1 construct: BIOMOL International LP, MMP-7 (recombinant, catalytic domain); purchased BIOMOL International LP
T1 sequence (P09237 95-267): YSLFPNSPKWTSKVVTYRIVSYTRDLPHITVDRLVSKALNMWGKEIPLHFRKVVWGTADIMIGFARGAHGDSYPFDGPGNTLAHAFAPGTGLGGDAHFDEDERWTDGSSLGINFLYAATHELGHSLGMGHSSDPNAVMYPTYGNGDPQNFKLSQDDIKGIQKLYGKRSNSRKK
As to the kind of experiment: MMP-7 enzyme kinetic parameters, Michaelis-Menten fit of initial velocities. The class given is biochemical. On the procedure:
(§1) At rt, an aliquot (2 μL) of active MMP-7 (0.454 μg/μL) was added into 0.998 mL of a freshly prepared solution of biosensor I at a known concentration in standard buffer. The extinction coefficient of I, ε=15,000 M^−1 cm^−1 at 280 nm in water, was determined from a solution containing the weighed sample. At approximately 3 min intervals, 70 μL aliquots were removed from the reaction mixture and immediately quenched with 30 μL of a 40 mM EDTA solution. Each aliquot was analyzed by HPLC with the gradient: time 0, A/B=75/25; 0-30 min, linear increase to A/B=45/55; 30-32 min, linear change to A/B=20/80; 32-42 min, A/B=20/80. The retention times for I and II were 15.6 min and 17.9 min, respectively. The enzyme activity was determined from the initial rate of increase in the concentration of cleaved sensor II, during the consumption of the first 10-15% of substrate I. The absorbance at 280 nm of the growing peak at 17.9 min was integrated and compared for each time point. Initial velocities were measured at substrate I concentrations of 6, 16, 28, 38, 48, 74 and 100 μM.
(§2) The kcat/KM value for all peptide substrates was calculated based on the Michaelis-Menten equation (Equation 1) after fitting the activity data at varying substrate concentrations with a non-linear regression curve: […]
(§3) For the azidopeptide substrate 1, enzyme activity was determined similarly by HPLC with the gradient: time 0, A/B=90/10; 0-30 min, linear increase to A/B=60/40; 30-32 min, linear change to A/B=20/80; 32-42 min, A/B=20/80. Peak areas were monitored for the intact substrate 1 and cleaved hexapeptide product 3 at retention times of 17.0 and 10.3 min, respectively. Initial velocities were measured at substrate 1 concentrations of 6, 50, 100, and 870 μM.
(§4) For the fluorometric enzymatic assay, an aliquot (2 μL) of active MMP-7 (0.454 μg/μL) was added into 0.998 mL solution of ^129Xe biosensor I with known concentration at 298 K. Fluorescence spectra were collected from 310-450 nm. […]

The target in series [2] is T1, MMP-7. As to the kind of experiment: MMP-7 enzymatic assay monitored by HPLC (UV-vis). The class given is biochemical. On the procedure: as §1, §3
The ability of MMP-7 to hydrolyze ^129Xe biosensor I was initially confirmed by HPLC analysis (FIG. 3a). A standard assay was performed by incubating a 1 mL reaction mixture of 32 nmol I and 42 pmol MMP-7 at 310 K. Reaction progress was monitored by analyzing aliquots of the reaction mixture at regular intervals. […] MALDI-TOF mass spectrometry identified these new peaks as the cleaved hexapeptide LWRSRK 3 and cryptophane-peptide product II, respectively. The peptide cleavage pattern agreed with previous assays using this substrate. […]

Series [3] can be described thus: concentration dependence of fluorescence intensity (aggregation). The class given is physicochemical. The settings on record: fluorescence intensity linear over 1-250 μM, standard buffer. The protocol: Solutions were at room temperature in standard buffer. The fluorescence intensity for each compound at a given wavelength and concentration was normalized to its value at the maximum biosensor concentration, in order to facilitate comparison and show linearity over a large concentration range.
Experiments were performed to identify the important contributions to the observed Trp fluorescence quenching. In the fully extended biosensor I (FIG. 1) cryptophane and Trp were separated by approximately 40 Å. Temperature dependence studies identified little contribution to Trp quenching from the cryptophane within the intact biosensor I. The observed decrease in Trp fluorescence at elevated temperatures (λem=358 nm, F/F0=0.3 at 353 K) was virtually identical to that seen with the Trp-containing hexapeptide 3, and was thus attributed to temperature-dependent solvent quenching by non-radiative decay processes. […] This was confirmed with I and II by comparing the concentration dependence of fluorescence intensity (λex=295 nm, λem=318 nm for cryptophane and λem=358 nm for Trp), after correcting for inner filter effects and dilution. Neither compound's fluorescence intensity deviated from linearity over the concentration range, 1-250 μM (FIG. 8). The absorption and fluorescence maxima were unchanged over this range.

For series [4], the target named is T1, MMP-7. As to the kind of experiment: fluorometric MMP-7 enzymatic assay (Trp fluorescence). The class given is biochemical. On the procedure: Fluorescence spectra of I and II dissolved in standard buffer (λex=295 nm) were measured in small volume, 1-cm pathlength quartz cuvettes at 298 K using a Varian Cary Eclipse fluorescence spectrophotometer operated with the Cary Eclipse Bio software package (1 nm steps, 5 nm excitation and emission slits). Kinetics data were collected at 30 s intervals using the same software on samples with controlled temperature and stirring.
For the fluorometric enzymatic assay, an aliquot (2 μL) of active MMP-7 (0.454 μg/μL) was added into 0.998 mL solution of ^129Xe biosensor I with known concentration at 298 K. Fluorescence spectra were collected from 310-450 nm. All reported fluorescence data are uncorrected and are roughly 5 nm red-shifted from the values obtained when the instrumental correction feature is employed. Trp fluorescence at 400 nm was analyzed as a function of time, since there was little contribution at this wavelength from monopropargyl-cryptophane-A fluorescence. The enzyme activity was calculated from the initial rate of decrease in Trp emission at 400 nm, over the time interval that corresponded to the first 10-15% completion of the reaction. The kcat/KM value for biosensor I was calculated by non-linear regression of the activity data by varying the biosensor concentration from 6-100 μM; double-reciprocal 1/v versus 1/[S] Lineweaver-Burk plots^49 gave a similar kcat/KM value.
In enzyme kinetics studies, the fluorescence spectrum of I was taken at 30 s intervals after addition of MMP-7 (FIG. 7b). A continuous decrease of Trp emission was observed. The change in fluorescence intensity at 400 nm was used to calculate the initial velocity (v) of the enzyme reaction. The v values determined by HPLC and fluorometric methods were in excellent agreement (Table 1), which validated using the fluorometric assay to monitor this enzyme reaction. The Trp fluorescence assays were easier to run, allowed continuous monitoring of the reaction, provided greater sensitivity, and required less material than HPLC-based UV-vis absorbance measurements.

Series [5] has as its system Trp-containing hexapeptide LWRSRK 3. As to the kind of experiment: Stern-Volmer fluorescence quenching of hexapeptide 3 by cleaved biosensor II. Conditions: 3 at 16 μM, II 0-120 μM, 298 K, standard buffer; listed as II. The class given is binding. On the procedure: Solution of 3 was titrated with 3.18 mM II, to achieve concentrations of II between 0 and 120 μM. Steady-state fluorescence measurements found the ratio of initial fluorescence, F0, to observed fluorescence, F, at each quencher concentration. The linear fit gave an R^2 value of 0.88, which indicated a dominant static quenching mechanism. The slope of this line gave the association constant, KS=9000 M^−1, for the II-3 complex.
Having ruled out a prevalent role for intra- and intermolecular interactions within or between biosensors, we sought further to explain the decrease in Trp fluorescence upon enzymatic cleavage. […] To examine this quenching mechanism, the steady-state fluorescence intensity of the hexapeptide LWRSRK 3 was measured as a function of the cleaved sensor II (putative quencher) concentration in standard buffer. This Stern-Volmer experiment could only be performed within a limited range of II concentrations, due to limitations in the quantity of material and the contribution of this compound to total fluorescence. […] All fluorescence spectra were corrected to remove contributions from cryptophane. The resulting fluorescence maximum at 358 nm, which corresponded to Trp emission of I, decreased with successive additions of II. […]

Series [6] addresses T1, MMP-7. Conditions: reported previously at 303 K; cited from earlier work.
The target in series [7] is T2, MMP-7-responsive 129Xe biosensor I (monopropargyl-cryptophane-A coupled to azidopeptide RKRPLALWRSRK).
T2 chain: RKRPLALWRSRK

The target of series [8] is T3, azidopeptide N3-CH2CH2-CONH2-RKRPLALWRSRK
T3 chain: RKRPLALWRSRK

Substrate in series [9]: CC(C)C[C@H](NC(=O)[C@H](C)NC(=O)[C@H](CC(C)C)NC(=O)[C@@H]1CCCN1C(=O)[C@H](CCCNC(=N)N)NC(=O)[C@H](CCCCN)NC(=O)[C@H](CCCNC(=N)N)NC(=O)CCN=[N+]=[N-])C(=O)N[C@@H](Cc1c[nH]c2ccccc12)C(=O)N[C@@H](CCCNC(=N)N)C(=O)N[C@@H](CO)C(=O)N[C@@H](CCCNC(=N)N)C(=O)N[C@@H](CCCCN)C(=O)O
As to the kind of experiment: MMP-7 enzyme kinetic parameters, Michaelis-Menten fit of initial velocities. The class given is biochemical. Conditions: other: MMP-7 42 nM, 298 K, standard buffer. On the procedure:
as §1, §2, §3, §4

Series [10] deals with T4, hexapeptide LWRSRK.
T4 sequence (peptide): LWRSRK
As to the kind of experiment: Stern-Volmer steady-state Trp fluorescence quenching; hexapeptide 3 (16 µM) titrated with II (0-120 µM), 298 K, standard buffer.

Where [11] appears, read: MMP-7 42 nM, 298 K, standard buffer.

As a reminder, the Km is the substrate concentration at which the rate is half of its maximum. As a reminder, the Vmax is the top rate of the reaction or transport when substrate is in excess. Regarding “Biosensor I: monopropargyl-cryptophane-A 7 coupled by [3+2] cycloaddition to azidopeptide 1 (RKRPLALWRSRK); MMP-7-responsive 129Xe biosensor ({monopropargyl‑cryptophane‑A (triazole via Cu(I) (3+2) cycloaddition)-3‑azidopropionyl}-RKRPLALWRSRK-OH)”, in series [1], the “fold lower Vmax relative to substrate 1” value stood at 3.6 fold. Also, the Km in series [1] (setting [11]) was 43 µM. Further, the Vmax in [1] (setting [11]) is 1.3e-08 M/s. For the same molecule, the “Initial velocity, HPLC assay” value was determined as 1 pmol/s in [2] (Biosensor I 6 μM), 10 pmol/s in series [2] (Biosensor I 50 μM) and 7 pmol/s in series [2] (Biosensor I 100 μM). Further, the aggregation in solution result in series [3] was “unlikely to aggregate”. Besides, the “Initial velocity, fluorometric assay” value in [4] (Biosensor I 6 μM) was 0.9 pmol/s; in series [4] (Biosensor I 50 μM), 9 pmol/s; in [4] (Biosensor I 100 μM), 8 pmol/s.
Turning to “Biosensor II: monopropargyl-cryptophane-A 7 coupled to azidopeptide 2 (RKRPLA); MMP-7 cleaved product of I ({monopropargyl‑cryptophane‑A-3‑azidopropionyl (triazole link)}-RKRPLA-OH)”, in [5], the “association constant KS of the II-3 complex” value is 9000 ± 1000 M⁻¹ and 9000 M⁻¹. Further, the aggregation in solution entry in series [3] is on record as “unlikely to aggregate”.
On to “dinitrophenyl-Arg-Pro-Leu-Ala-Leu-Trp-Arg-Ser”, for which the Km in series [6] is 26 µM.

B1: MMP-7 (Homo sapiens) (protein)
chain: T1 sequence (P09237 95-267)
notes: BIOMOL International LP, MMP-7 (recombinant, catalytic domain); purchased BIOMOL International LP
Usually KM stands for the substrate concentration at which the rate is half of its maximum. The kcat/KM is the turnover number divided by the Michaelis constant. For orientation: kcat/Km means the turnover number divided by the Michaelis constant. Turning to B1, in [7], the KM was 43 µM; the Vmax came to 1.3e-08 M/s; the “initial velocity v of proteolysis of biosensor I by MMP-7 (42 nM), fluorometric assay, 298 K; shown without a printed number” value is “v rises with [Biosensor I] from about 1 nM s-1 at about 6 µM to about 8-9 nM s-1 at 74-100 µM; the Michaelis-Menten fit line is still rising at 100 µM, no upper plateau inside the range”; the kcat/KM is 7200 M⁻¹ s⁻¹. Moreover, in series [8], the KM was determined as 150 µM, the Vmax was found to be 4.7e-08 M/s and the kcat/KM was determined as 7300 M⁻¹ s⁻¹. For the same molecule, in [9], the Km came out at 150 µM, the Vmax worked out at 2.82 µM/min and the kcat/Km came to 7300 M⁻¹ s⁻¹.

B2: cleaved biosensor II (monopropargyl-cryptophane-A coupled to azidopeptide RKRPLA) (peptide)
peptide: {monopropargyl‑cryptophane‑A (via triazole, CuAAC)-3‑azidopropionyl}-RKRPLA-OH
With B2, the Ka in series [10] stood at 9000 M⁻¹.
